# Results taken from the nanobody polyreactivity screen of Harvey et al. (2022).
# Assay: yeast display, Sf9 membrane polyspecificity reagent, FACS + sequencing; frameworks hold sequencing errors
# How it was run: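 Using colony PCR, genes from sorted yeast display clones were amplified, then sequenced on MiSeq at 2 × 250 and filtered by CDR length. The clones had been stained with 10% biotinylated, detergent-solubilized Sf9 membrane reagent for 1 hour at 4 °C and sorted by FACS into low and high (top ~1%) gates on anti-HA and streptavidin fluorescence. Polyreactivity labels come from the gate of origin.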
row,Sequence,polyreactivity (PSR sort gate)
1,QVQLVESGGGLVQAGGSLRLSCAASGFTFGYYSMGWYSQAPGKERELVAAISSGGNTNYADSVKGRFTISRDNAKNTVYLQMNSLKPEDTAVYYCNSRSWRYYKTYSAFNYWGQGTQVTVSS,high polyreactivity
2,QVQLVESGGGLVQAGGSLRLSCAASGFTFGYYVRGWYRQAPGKERELVAAITSGGSTYYADSVKGRFTISRDNAKNTVYLQMNSLKPEDTAVYYCAAFLGATYYYWGQGTQVTVSS,high polyreactivity
3,QVQLVESGGGLVQAGGSLRLSCAASGFTFHDYAMGWYRQAPGKERELVAAITKSGGRTYYADSVKGRFTISRDNAKNTVYLQMNSLKPEDTAVYYCNAVTLRRIYSNPEYDSWGQGTQVTVSS,high polyreactivity
4,QVQLVESGGGLVQAGGSLRLSCAASGFTFHGNAMGWYRQAPGKERELVAVISSSGASTYYADSVKGRFTISRDNAKNTVYLQMNSLKPEDTAVYYCAKVSSPLLYVSSDYDYWGQGTQVTVSS,high polyreactivity
5,QVQLVESGGGLVQAGGSLRLSCAASGFTFHNNVMGWYRQAPGKERELVATISKSGGSTYYADSVKGRFTISRDNAKNTVYLQMNSLKPEDTAVYYCAALYPYQYVRGGYWGQGTQVTVSS,high polyreactivity
6,QVQLVESGGGLVQAGGSLRLSCAASGFTFHSYAMGWYRQAPGKDRELVAAISRGGGNTYYADSVKGRFTISRDNAKNTVYLQMNSLKPEDTAVYYCAADAIYNFEMDYWGQGTQVTVSS,high polyreactivity
7,QVQLVESGGGLVQAGGSLRLSCAASGFTFHSYAMGWYRQAPGKERELVAAISRGGGSTYYADSVKGRFTISRDNAKYTVYLQMNSLKPEDTAVYYCAARGQGGYRVGYYYWGQGTQVTVSS,high polyreactivity
8,QVQLVESGGGLVQAGGSLRLSCAASGFTFHSYAMGWYRQAPGKERELVAAISTGGTRTYYADSVMGRVTISRDNAKNTVYLQMNSLKPEDTAVYYCAADLYRGVRIYSKYDSWGQGTQVTVSS,high polyreactivity
9,QVQLVESGGGLVQAGGSLRLSCAASGFTFHWYAMGWYRQAPGKERELVAAISSGSSTYYADSVKGRFTISRDNAKNTVYLQMKSLKPEDTAVYYCNVVLYKYSPTESWITYDYWGQGTQVTVSS,low polyreactivity
10,QVQLVESGGGLVQAGGSLRLSCAASGFTFHYYDMGWYRQAPGKERELVASISWSGGDTYYADSVKGRFTISRDNAKNTVYLQMNSLKPEDTAVYYCAADPTQEVQYLTPYTYDYWGQGTQVTVSS,low polyreactivity
11,QVQLVESGGGLVQAGGSLRLSCAASGFTFIGNAMGWYRQAPGKERELVAAISWRGGSTYYADSVKGRFTISRDNAKNTVYLQMNSLKPEDTAVYYCNKVPRRVSRSERDYWGQGTQVTVSS,high polyreactivity
12,QVQLVESGGGLVQAGGSLRLSCAASGFTFIHYGMGWYRQAPGKERELVAAITWRGDRTYADSVKGRFTISRDNAKNTVYLQMNSLKPEDTAVYYCAVGFYYFSSWYSYDYWGQGTQVTVSS,high polyreactivity
13,QVQLVESGGGLVQAGGSLRLSCAASGFTFIPNAMGWYRQAPGKERELVAAISTGGSTYYADSVKGRFTISRDNAKNTVYLQMNSLKPEDTAVYYCAAGILVLKLYFSSYDYWGQGTEVTVSS,low polyreactivity
14,QVQLVESGGGLVQAGGSLRLSCAASGFTFIRNAMGWYRQAPGKDRELVAAISRSGGSTYYADSVKGRFTISRDNAKYTVYLQMNSLKPEDTAVYYCPVTLYLKWQGGAYDYWGQGTQVTVSS,low polyreactivity
15,QVQLVESGGGLVQAGGSLRLSCAASGFTFIRNGMGWYRQAPGKERELVAAITTSGSGTYYADSVKGRFTISRDNAKNTVYLQMNSLKPEDTAVYYCATDYRYRSYSRGAHDYWGQGTQVTVSS,low polyreactivity
16,QVQLVESGGGLVQAGGSLRLSCAASGFTFISKAMGWYRQAPGKERELVAAISSSGGRTYYADSVKGRFTISRDHAKYTVYLQMNSLKPEDTALYYCNADRSLLYSRKIEYDYWGQGTQVTVSS,low polyreactivity
17,QVQLVESGGGLVQAGGSLRLSCAASGFTFISYAMGWYSQAPGQERELVAAISSTGGSTYYADSVKGRFTSSRDTAKKTVYLQMNSLKPEETAVYYCNAVYWYTSEYDYWGQGTQVTVSS,high polyreactivity
